These results are taken from patent publication US20250026849A1 (ARCELLX, published 2025).

The chains are these.
T1: BCMA (Homo sapiens (Human), UniProt Q02223 1-54, limits assumed)
T1 sequence: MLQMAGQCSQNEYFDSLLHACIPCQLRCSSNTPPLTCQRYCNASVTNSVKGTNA

B1: D-domain SEQ ID NO: 260 (designed binder)
chain: MGSWEQFKYRLAIIKYMLEALGGSEAELAWFESWIANFESDLQHYKGKGNPEVEALRKEAAAIRDELQAYRHN
B2: D-domain SEQ ID NO: 261 (designed binder)
chain: MGSWQQFKYRLAIIKYYLEALGGSEAELAGFETYIAKFEEVLQSYKGKGNPEVEALRKEAAAIRDELQAYRHN
B3: D-domain SEQ ID NO: 265 (designed binder)
chain: MGSWANFKYRLALIKWHLEALGGSEAELASFEIWIADFEESLQWYKGKGNPEVEALRKEAAAIRDELQAYRHN
B4: D-domain SEQ ID NO: 267 (designed binder)
chain: MGSWTHFKYRLALIKWWLEALGGSEAELAGFEVHIADFEAQLQMYKGKGNPEVEALRKEAAAIRDELQAYRHN
B5: D-domain SEQ ID NO: 266 (designed binder)
chain: MGSWATFKYRLALIKWHLEALGGSEAELADFEEYIAGFEEGLQKYKGKGNPEVEALRKEAAAIRDELQAYRHN
B6: D-domain SEQ ID NO: 238 (designed binder)
chain: MGSWDAFKHRLALIKWYLEALGGSEAELAHFEEYIAEFESNLQSYKGKGNPEVEALRKEAAAIRDELQAYRHN
B7: D-domain SEQ ID NO: 264 (designed binder)
chain: MGSWAHFKYRLAIIKFWLEALGGSEAELANFEEYIAEFESTLQVYKGKGNPEVEALRKEAAAIRDELQAYRHN
B8: D-domain SEQ ID NO: 255 (designed binder)
chain: MGSWHAFKYKLAMIKWYLEALGGSEAELAHFEEWIAEFEALLQEYKGKGNPEVEALRKEAAAIRDELQAYRHN
B9: D-domain SEQ ID NO: 240 (designed binder)
chain: MGSWNGFKHRLAIIKWYLEALGGSEAELASFESYIAEFESGLQEYKGKGNPEVEALRKEAAAIRDELQAYRHN
B10: D-domain SEQ ID NO: 239 (designed binder)
chain: MGSWDGFKHRLALIKWYLEALGGSEAELANFENWIAEFEQRLQYYKGKGNPEVEALRKEAAAIRDELQAYRHN
B11: D-domain SEQ ID NO: 241 (designed binder)
chain: MGSWNSFKHRLALIKWYLEALGGSEAELATFEWYIASFESELQQYKGKGNPEVEALRKEAAAIRDELQAYRHN
B12: D-domain SEQ ID NO: 244 (designed binder)
chain: MGSWYGFKYRLAVIKWYLEALGGSEAELASFEKYIAHFEHDLQAYKGKGNPEVEALRKEAAAIRDELQAYRHN
B13: D-domain SEQ ID NO: 262 (designed binder)
chain: MGSWAGFKYRLAVIKYYLEALGGSEAELAHFEQWIAHFEGMLQDYKGKGNPEVEALRKEAAAIRDELQAYRHN
B14: D-domain SEQ ID NO: 248 (designed binder)
chain: MGSWHEFKYRLALIKWYLEALGGSEAELATFEHHIAQFEWDLQKYKGKGNPEVEALRKEAAAIRDELQAYRHN
B15: D-domain SEQ ID NO: 250 (designed binder)
chain: MGSWHGFKYRLAIIKWWLEALGGSEAELAFFEEWIASFERDLQIYKGKGNPEVEALRKEAAAIRDELQAYRHN
B16: D-domain SEQ ID NO: 254 (designed binder)
chain: MGSWGYFKYRLAMIKWYLEALGGSEAELASFESWIAEFEGSLQAYKGKGNPEVEALRKEAAAIRDELQAYRHN
B17: D-domain SEQ ID NO: 274 (designed binder)
chain: MGSWVDFKYHLAVIKWYLEALGGSEAELADFENWIAHFESILQQYKGKGNPEVEALRKEAAAIRDELQAYRHN
B18: D-domain SEQ ID NO: 247 (designed binder)
chain: MGSWSTFKYHLAVIKWYLEALGGSEAELASFEDYIAQFETDLQEYKGKGNPEVEALRKEAAAIRDELQAYRHN
B19: D-domain SEQ ID NO: 246 (designed binder)
chain: MGSWYGFKYRLALIKWYLEALGGSEAELASFETYIADFEDLLQAYKGKGNPEVEALRKEAAAIRDELQAYRHN
B20: D-domain SEQ ID NO: 249 (designed binder)
chain: MGSWNMFKYRLAHIKWYLEALGGSEAELATFEAYIADFEVDLQKYKGKGNPEVEALRKEAAAIRDELQAYRHN
B21: D-domain SEQ ID NO: 257 (designed binder)
chain: MGSWNDFKYRLAIIKYYLEALGGSEAELAHFESYIASFEHDLQNYKGKGNPEVEALRKEAAAIRDELQAYRHN
B22: D-domain SEQ ID NO: 259 (designed binder)
chain: MGSWYNFKYRLAIIKFYLEALGGSEAELAQFEIWIAEFEHDLQGYKGKGNPEVEALRKEAAAIRDELQAYRHN
B23: D-domain SEQ ID NO: 251 (designed binder)
chain: MGSWHGFKYRLAVIKWYLEALGGSEAELAMFEGWIAQFEITLQQYKGKGNPEVEALRKEAAAIRDELQAYRHN
B24: D-domain SEQ ID NO: 258 (designed binder)
chain: MGSWGAFKYRLAIIKFYLEALGGSEAELARFEEFIANFEHDLQNYKGKGNPEVEALRKEAAAIRDELQAYRHN
B25: D-domain SEQ ID NO: 253 (designed binder)
chain: MGSWSGFKYRLAVIKWYLEALGGSEAELATFEEWIAEFETELQFYKGKGNPEVEALRKEAAAIRDELQAYRHN
B26: D-domain SEQ ID NO: 263 (designed binder)
chain: MGSWTAFKYRLAIIKFYLEALGGSEAELAHFESYIAHFEDMLQHYKGKGNPEVEALRKEAAAIRDELQAYRHN
B27: D-domain SEQ ID NO: 256 (designed binder)
chain: MGSWQHFKYRLAIIKWYLEALGGSEAELAFFESFIAKFEHDLQKYKGKGNPEVEALRKEAAAIRDELQAYRHN
B28: D-domain SEQ ID NO: 245 (designed binder)
chain: MGSWYGFKYRLAVIKWYLEALGGSEAELASFEKYIAQFEHDLQAYKGKGNPEVEALRKEAAAIRDELQAYRHN
B29: D-domain SEQ ID NO: 242 (designed binder)
chain: MGSWSDFKYRLAVIKFYLEALGGSEAELASFESFIAHFEDDLQKYKGKGNPEVEALRKEAAAIRDELQAYRHN
B30: D-domain SEQ ID NO: 243 (designed binder)
chain: MGSWSGFKYRLAVIKFYLEALGGSEAELASFELFIAKFEIDLQNYKGKGNPEVEALRKEAAAIRDELQAYRHN
B31: D-domain SEQ ID NO: 252 (designed binder)
chain: MGSWQGFKYRLAVIKWMLEALGGSEAELAFFENWIAEFETKLQQYKGKGNPEVEALRKEAAAIRDELQAYRHN
B32: D-domain SEQ ID NO: 271 (designed binder)
chain: MGSWNEFKYHLAVIKFYLEALGGSEAELAHFETWIAEFEYELQKYKGKGNPEVEALRKEAAAIRDELQAYRHN
B33: D-domain SEQ ID NO: 270 (designed binder)
chain: MGSWNQFKYRLAVIKFYLEALGGSEAELAHFETWIAAFEEQLQFYKGKGNPEVEALRKEAAAIRDELQAYRHN
B34: D-domain SEQ ID NO: 278 (designed binder)
chain: MGSWQGFKYHLALIKFYLEALGGSEAELAHFEHWLAEFEHDLQTYKGKGNPEVEALRKEAAAIRDELQAYRHN
B35: D-domain SEQ ID NO: 285 (designed binder)
chain: MGSWSHFKYHLAIIKFYLEALGGSEAELAGFEIWIAKFEDELQMYKGKGNPEVEALRKEAAAIRDELQAYRHN
B36: D-domain SEQ ID NO: 280 (designed binder)
chain: MGSWSEFKYKLALIKWYLEALGGSEAELAHFEGWIANFETTLQKYKGKGNPEVEALRKEAAAIRDELQAYRHN
B37: D-domain SEQ ID NO: 273 (designed binder)
chain: MGSWVDFKYHLAVIKFWLEALGGSEAELANFETWIANFEQELQMYKGKGNPEVEALRKEAAAIRDELQAYRHN
B38: D-domain SEQ ID NO: 272 (designed binder)
chain: MGSWVQFKYHLAVIKFYLEALGGSEAELAHFETWIAEFEVALQGYKGKGNPEVEALRKEAAAIRDELQAYRHN
B39: D-domain SEQ ID NO: 268 (designed binder)
chain: MGSWNTFKYHLAVIKFMLEALGGSEAELAFFEQWIAEFEVTLQSYKGKGNPEVEALRKEAAAIRDELQAYRHN
B40: D-domain SEQ ID NO: 276 (designed binder)
chain: MGSWSHFKYHLALIKWYLEALGGSEAELAKFEFWIAEFEHNLQMYKGKGNPEVEALRKEAAAIRDELQAYRHN
B41: D-domain SEQ ID NO: 269 (designed binder)
chain: MGSWTQFKYHLAVIKWYLEALGGSEAELAGFEQWIAEFEKTLQEYKGKGNPEVEALRKEAAAIRDELQAYRHN
B42: D-domain SEQ ID NO: 277 (designed binder)
chain: MGSWYHFKYHLALIKWYLEALGGSEAELAHFEHWIAEFEWTLQQYKGKGNPEVEALRKEAAAIRDELQAYRHN

In the assay the target is T1, BCMA. Nature of the assay: ELISA, format not described. More on the design: unit not given here. For orientation: An ELISA detects its analyte on a solid surface through an enzyme-linked reagent.
B1 returned an ELISA_avg of 11.
B2 returned an ELISA_avg of 15.1.
As for B3, the ELISA_avg was 14.3.
As for B4, the ELISA_avg worked out at 7.37.
In the case of B5, the ELISA_avg came out at 15.1.
In turn, B6 returned an ELISA_avg of 13.
The molecule B7 showed an ELISA_avg of 13.1.
The same measure for B8: 11.6; for B9: 16.5.
With B10, the ELISA_avg is 23.6.
For B11, the ELISA_avg was 10.3.
Consider B12, for which the ELISA_avg turned out to be 9.05.
To B13 belongs 12.7; to B14, 16.2.
The molecule B15 yielded an ELISA_avg of 6.03.
To B16 belongs 13; to B17, 10.4; to B18, 11.7.
In turn, B19 had an ELISA_avg of 13.
Consider B20, for which the ELISA_avg was 16.3.
For B21, the ELISA_avg stood at 15.1.
B22: the ELISA_avg came to 19.9.
In turn, B23 displayed an ELISA_avg of 5.99.
B24 displayed an ELISA_avg of 12.9.
On to B25, for which the ELISA_avg came out at 14.
Consider B26, for which the ELISA_avg amounted to 7.43.
On to B27, for which the ELISA_avg amounted to 8.91.
Consider B28, for which the ELISA_avg amounted to 7.63.
Turning to B29, the ELISA_avg amounted to 13.
Molecule B30 gave an ELISA_avg of 13.1.
Turning to B31, the ELISA_avg was determined as 7.75.
In turn, B32 came in with an ELISA_avg of 13.7.
B33 displayed an ELISA_avg of 12.8.
As to B34, the ELISA_avg came out at 21.2.
B35 returned an ELISA_avg of 9.34.
To B36 belongs 11.3.
B37 gave an ELISA_avg of 13.2.
On to B38, for which the ELISA_avg was found to be 12.7.
B39 had an ELISA_avg of 10.6.
The molecule B40 returned an ELISA_avg of 7.93.
On to B41, for which the ELISA_avg was determined as 21.1.
In turn, B42 returned an ELISA_avg of 8.85.
